Article PMC6182147
Like-named read-outs stand apart in the source and are kept apart here.

Columns and labels:
[1] = target: Clp-GST (L. enzymogenes Clp purified as GST-fusion) (Lysobacter enzymogenes) (UniProt Q7WZ07); assay: MST
[2] = target: Clp-GST (L. enzymogenes Clp purified as GST-fusion) (Lysobacter enzymogenes) (UniProt Q7WZ07); assay: MST; remark: listed apart in the source

LchP-PGE-MBP (cytoplasmic fragment of LchP, PAS+GGDEF+EAL domains, fused to maltose binding protein) (domain or fragment)
Kd [1]: 1.42 nM | Kd [2]: 7.18 nM
